# Laboratory results reported in the supplement of paper PMC10567573.
# B1: PTPRD (parent)
# chain: MVHVARLLLLLLTFFLRTDAETPP
# B2: CDC25A (parent)
# chain: KPIVPTDGKRVIVVFHCEFSSERG
# Variants of: B1
# Assay: protein stability index of a GFP-peptide fusion (GPS, HEK-293T) (PSI 1-6); higher = more stable
# Settings: c terminus: a fixed tail appended
# 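Note: lentivirally expressed fusions sorted by FACS into six bins by GFP to DsRed ratio, PSI derived from sequencing read proportions per bin multiplied by bin number.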
row,Variant,protein stability index
1,T18E,2.04
2,T18M,2.62
3,T18K,3.74
4,T18H,2.3
5,T18V,2.63
6,T18R,3.3
7,T18C,1.86
8,T18Y,2.88
9,T18F,3.28
10,T18D,2.18
11,T18G,2.47
12,T18N,2.38
13,T18S,2.48
14,T22F,1.95
15,T22E,2.08
16,T22H,2.36
17,T22D,2.81
18,T22W,5.11
19,T22V,3.03
20,T22N,2.05
21,T22S,4.07
22,T22R,3.51
23,P23F,2.96

row,Variant,protein stability index
1,P23R,3.55
2,P23Q,3.52
3,P23N,2.49
4,P23A,2.42
5,P23Y,3.76
6,P23S,2.84
7,P23T,1.86
8,P23V,2.46
9,P23M,2.86
10,P23E,2.31
11,F14Y,1.86
12,L16Y,1.52
13,L16H,2.35
14,L16A,1.49
15,L16D,3.53
16,L16W,1.81
17,L16R,1.72
18,L16P,2.65
19,L16E,3.34
20,L16T,2.68
21,L16Q,1.74
22,L16M,4.18
23,L16N,2.12

row,Variant,protein stability index
1,L16F,1.37
2,L16K,1.72
3,L16G,2.65
4,L16S,2.22
5,P24A,3.4
6,P24M,3.61
7,P24D,2.73
8,P24V,2.77
9,P24N,1.73
10,P24T,3.52
11,P24Q,3.53
12,P24S,4.91
13,P24L,2.27
14,P24F,1.99
15,P24Y,2.67
16,P24C,4.5
17,P24I,2.26
18,D19N,2.96
19,D19K,2.29
20,D19C,4.03
21,D19Q,2.75
22,D19V,3.32
23,D19I,2.41

row,Variant,protein stability index
1,D19A,2.91
2,D19F,3.69
3,D19L,2.71
4,D19S,1.84
5,R17D,2.22
6,R17N,3.08
7,R17Q,1.92
8,R17Y,2.3
9,R17I,2.17
10,R17E,1.62
11,R17P,1.87
12,R17F,2.87
13,R17L,2.77
14,R17V,2.9
15,R17T,2.79
16,E21V,2.83
17,E21Q,4.35
18,E21Y,2.55
19,E21C,2.82
20,E21L,2.79
21,E21M,3.64
22,E21K,2.66
23,E21F,3.22

row,Variant,protein stability index
1,E21A,3.13
2,A20D,1.29
3,A20Q,2.29
4,A20E,2.48
5,A20H,3.11
6,A20L,2.99
7,A20F,1.84
8,A20I,1.81
9,A20G,1.84
10,F15V,2.2
11,F15W,2.81
12,F15D,2.02
13,F15I,2.25
14,F15H,4.29
15,F15E,2.21
16,F15N,3.47
17,F15M,2.34
18,F15P,2.01
19,F15Y,3
20,F15L,2.13

# Variants of: B2
# Assay: as above
# Settings: c terminus: a fixed tail appended
row,Variant,protein stability index
1,P5F,2.19
2,P5W,3.01
3,P5C,4.79
4,S20Y,2.42
5,S20K,2.76
6,S20G,2.51
7,S20M,2.43
8,S20D,1.68
9,V13A,2.28
10,V13D,3.69
11,V13W,1.79
12,R10F,2.43
13,G8A,2.26
14,G8W,2.51
15,G8C,1.88
16,E22A,2.39
17,E22P,2.64
18,P2R,1.99
19,H16M,4.57
20,H16P,2.46
21,H16K,1.49
22,I12P,3.39
23,I12N,2.99
24,I12Q,2
25,F19G,2.15
26,F19W,1.86
27,F19P,1.8
28,F19A,1.71

row,Variant,protein stability index
1,F19V,2.19
2,I3E,2.1
3,I3P,2.27
4,I3T,2.19
5,I3N,2.48
6,E18R,2.48
7,E18H,3.13
8,E18P,2.31
9,E18W,2.46
10,K9G,2.86
11,F15E,4.32
12,D7N,2.48
13,R23L,2.44
14,R23I,3.36
15,R23E,2.14
16,R23D,2.52
17,R23M,2.92
18,V4K,2.11
19,V4W,2.32
20,V14E,2.67
21,V11P,2.31
22,V11S,2.35
23,T6N,2.28
24,K1E,1.68
25,S21M,2.22
26,S21I,1.42
27,S21A,2.27
